Reference: article PMC9204741 (2022)

T1: His6-SmiA (B. subtilis)
T1 chain: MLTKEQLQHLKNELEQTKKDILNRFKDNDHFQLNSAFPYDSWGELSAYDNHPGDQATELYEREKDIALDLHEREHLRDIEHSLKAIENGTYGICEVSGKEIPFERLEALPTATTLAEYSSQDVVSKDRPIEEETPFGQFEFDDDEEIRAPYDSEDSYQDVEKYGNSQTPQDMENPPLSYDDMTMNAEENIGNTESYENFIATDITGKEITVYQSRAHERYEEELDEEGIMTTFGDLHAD


How the values were obtained:
LonA-His6 (B. subtilis) = LonA-His6 (B. subtilis) (UniProt P37945)
His6-SmiA [1] = molecular target: T1, His6-SmiA; test: BLI; His6-SmiA (300 nM) loaded on anti-penta-His (HIS1K) biosensors; GST-SwrA variants 50-400 nM as analyte; 1x PBS, 1x kinetics buffer, 2% dialyzed fetal bovine serum, 0.5 mM TCEP; 1:1 binding model; Octet RED96
His6-SmiA [2] = molecular target: T1, His6-SmiA; test: BLI

Chain of LonA-His6 (B. subtilis) (P37945 whole entry): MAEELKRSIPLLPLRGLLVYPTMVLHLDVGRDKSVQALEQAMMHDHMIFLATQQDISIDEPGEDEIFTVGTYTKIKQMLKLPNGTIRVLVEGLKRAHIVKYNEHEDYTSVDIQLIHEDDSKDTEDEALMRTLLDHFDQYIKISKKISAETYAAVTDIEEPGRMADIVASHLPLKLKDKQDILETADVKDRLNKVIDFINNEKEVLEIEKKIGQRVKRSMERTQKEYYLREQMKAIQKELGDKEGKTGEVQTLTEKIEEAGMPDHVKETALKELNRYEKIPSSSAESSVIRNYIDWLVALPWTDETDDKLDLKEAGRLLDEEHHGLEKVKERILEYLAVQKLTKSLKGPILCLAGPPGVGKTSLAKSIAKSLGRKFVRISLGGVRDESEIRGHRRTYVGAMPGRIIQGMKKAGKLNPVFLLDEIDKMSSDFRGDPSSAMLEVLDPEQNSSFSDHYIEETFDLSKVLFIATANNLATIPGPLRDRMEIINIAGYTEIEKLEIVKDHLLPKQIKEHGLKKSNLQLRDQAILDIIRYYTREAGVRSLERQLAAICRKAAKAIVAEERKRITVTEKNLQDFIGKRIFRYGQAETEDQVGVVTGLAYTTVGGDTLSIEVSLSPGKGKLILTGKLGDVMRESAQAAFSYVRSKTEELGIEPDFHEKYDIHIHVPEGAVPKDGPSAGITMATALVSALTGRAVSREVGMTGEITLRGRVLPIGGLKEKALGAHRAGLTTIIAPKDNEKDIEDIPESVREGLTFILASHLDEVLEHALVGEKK

Row | Km of in vitro proteolysis of GST-mNG-SwrA (loss of fluorescence) with 0.25 μM LonA and 0.5 μM SmiA (LonA-His6 (B. subtilis)) [µM] | koff (His6-SmiA [1]) [s⁻¹] | kon (His6-SmiA [1]) [M⁻¹ s⁻¹] | Kd (His6-SmiA [2]) [nM] | Kd (His6-SmiA [1]) [nM] | Molecule
1 | 1.14 | – | – | – | – | GST-mNG-SwrA (from UniProt O32266 1-117) (natural protein)
2 | – | 0.0093 | 153000 | 60.9 | – | GST-SwrA (natural protein) MKRASIVREKKYYELVEQLKDRTQDVTFSATKALSLLMLFSRYLVNYTNVESVNDINEECAKHYFNYLMKNHKRLGINLTDIKRSMHLISGLLDVDVNHYLKDFSLSNVTLWMTQER
3 | – | 0.00418 | 96800 | 43.2 | 43.2 | GST-SwrA^Δ101–117 (domain or fragment) MKRASIVREKKYYELVEQLKDRTQDVTFSATKALSLLMLFSRYLVNYTNVESVNDINEECAKHYFNYLMKNHKRLGINLTDIKRSMHLISGLLDVDVNHY
